Reference: paper PMC4682053, “Mechanisms of assembly and genome packaging in an RNA virus revealed by high-resolution cryo-EM” (Nature Communications, 2015)

Molecular target: the molecule itself
Test: cryo-EM structure; CPMV eVLP purified from N. benthamiana leaves, ~4.2 mg/ml on the grid; single particles, icosahedral symmetry imposed; 3.04 Å; atomic model built de novo

B1: Cowpea mosaic virus Small (S) coat protein with its C-terminal extension, in the empty virus-like particle (eVLP) (natural protein)
chain: GPVCAEASDVYSPCMIASTPPAPFSDVTAVTFDLINGKITPVGDDNWNTHIYNPPIMNVLRTAAWKSGTIHVQLNVRGAGVKRADWDGQVFVYLRQSMNPESYDARTFVISQPGSAMLNFSFDIIGPNSGFEFAESPWANQTTWYLECVATNPRQIQQFEVNMRFDPNFRVAGNILMPPFPLSTETPPLLKFRFRDIERSKRSVMVGHTATAA
notes: Small (S) coat protein of cowpea mosaic virus, cut from the RNA-2-encoded precursor VP60 by the 24K proteinase; C-terminal 24 amino acids (190-213) kept; modelled up to Arg202, without 184-189; numbers count on: the S subunit; the particles imaged kept it; also called S subunit; small coat protein; source: N. benthamiana, agroinfiltrated with pEAQ-HT-VP60 and pEAQ-HT-24K or pEAQexpress-VP60-24K; …
stoichiometry N: 5
